The DeepSol protein solubility set

Assay: soluble on expression in E. coli; label from the status in PepcDB or PDB records

Row | Sequence | soluble on expression in E. coli
1 | MSELPPLNTDTIWGILNDQIDDATVMQLVWYYLGYRYDATTEKWDNNAVPSEWRDEYPEPPNFLESRPATMKLTRSIPKQYKQITKEKLGFKGYKIGTFTPRETRRATSANWLLSYLQQQIDQGK | soluble
2 | MSELRALIREILVEELAALRAAPAATPACEMVDVHSDEALMAFARDLLGRANDPEFVRCVQSGQHRFTLAPTVAQPPGQRPAPAASFTLVASAPAEAPRFEKALVTERDVAAIPRDQSRIRLARNTRLTPLASDELRRRGIRIERTQK | not soluble
3 | MSEMSVIIEFSIVPMGEVSISKYVAEIIKLVRDRGVKYQLTPMGTILEVNSIEEGLSIIRDAHELMFKLGSKRVLTTIRIDERRDKARTMEDKVKSVMEKVESVRE | soluble
4 | MSENLTMSELMDSFELKHFHKGEIVKGKVISVKNDEIIVNIGHFADGVVPRNEISNDKNFDINSINVDDDIFVMVLSGDDGEGNVLLSKKRADAIKVCDDLKEAFEEEKSIKVSLKEVVKGGIVGDFNGLRVFMPASQCAGRRIENLEELVGKTLEVRVIEFNKENRKVVVSRRVIDEEIRNNEKKALWSSIKEGEKRKGKVTRLAKFGAFVDIGGVEGLVHLSDMSWSRVHKPEEVVSVGDEVEVFVSEVDMDRERIALSLKDVIKNPWETLEGLKVGNVVLGKVTNFIKVGAFVEVLPGIEGLVHISEITDENIAKPSDILELGQEVKVKILNIDDENKKMSLSIKDAVETSNEYMQYNDEEEGYSLADLFKGLNLLEHHHHHH | soluble
5 | MSFDGFFLHHLTKELQEQILWGRIQKVNQPFEQELVLTIRNNRQNYKLLLSAHPVFGRVQLTKTDFQNPQSPNTFTMIMRKYLQGALIENIEQIENDRILEMSISNKNEIGDQIKVTMIIEIMGKHSNIILLDKNEGKITESIKHIGFTQNSYRTILPGSRYLAPPKIQAQNPFTISDETLFEILQTEDLAANNLQKLFQGLGRDTAAELSQRLKTDTFKNFKLFFDSPTSPTLTEKSFTAITFSNSQETFGSLSDLLDYFYQDKAERDRIAQQASDLIHRIQNELEKNKKKLKKQEQELQDTDKAEEFRQKGELLTTYLNQVPNNQDSVELDNYYTGQKVSIPLNKALTPSQNAQRYFKKYQKLKEAVKHLGSLISETKATIQYLESVDNALNQASLSEISEIREELVQTGFVKRRHREKIQKRKK | not soluble
6 | MSFDREEDQKLKFKTSKKLKVSSTFESMNLKDDLLRGIYSYGFEAPSSIQSRAITQIISGKDVIAQAQSGTGKTATFTIGLLQAIDLRKKDLQALILSPTRELASQIGQVVKNLGDYMNVNAFAITGGKTLKDDLKKMQKHGCQAVSGTPGRVLDMIKKQMLQTRNVQMLVLDEADELLSETLGFKQQIYDIFAKLPKNCQVVVVSATMNKDILEVTRKFMNDPVKILVKRDEISLEGIKQYVVNVDKEEWKFDTLCDIYDSLTITQCVIFCNTKKKVDWLSQRLIQSNFAVVSMHGDMKQEERDKVMNDFRTGHSRVLISTDVWARGIDVQQVSLVINYDLPEIIENYIHRIGRSGRFGRKGVAINFITKADLAKLREIEKFYSIKINPMPANFAELS | soluble
7 | MSFEYNEKVLDHFLNPRNVGVLEDANGVGQCGNPACGDAMLFTIKVNPENDVIEDVRFKTFGCGSAIAVSSMLTEMVKGKPIQYALNLTYKDIFEELGGLPPQKIHCTNLGLETLHVAIKDYLMKQGRVEEASKIPDCYEEEEEQEESKEFEFLSGTLEHHHHHH | soluble
8 | MSFGKIVVFLVLVLVQLIHCTRFTAPSLDRTIYYRNTPPDPFGHYSFEFQTTNGITTKGAGNENGAVGVVQFVSPEGIPVTFSYVADANGYQPTGDHIPAIPLHVIRQLEYIRTHPPVDEIRSRRWLEHHHHHH | not soluble
9 | MSFKVISTGPQAIFQDRGRFGFASAGVGTSGSFDRLSAARANHALGNDPNATVVEILLGGFEVEALHTTSIVFTGTEAEVMVRTAGGQSKNATTNTIIDVAAGERIRVEPATYGMRAYFAARGGFAVEKTLGSASTDLISHMGPRPIEPGDVIDVATDIADSQWWPKLRQLPTLWKRMPTETLTVIRGPRDKWFTQESLNNFFTQVFTVSNDSNRIGLRMHSSEPIQHRVEGELKSEGMVRGSIQIPPGGNPVVFGPDHPVTGGYPVIAVLTSRSCDRSAQLLPGDKVRFKLL | not soluble
10 | MSFMDKVKDTANSAYESVENTAVGAKDGVVGAFNTVGEKIGGAYDSTKQYASDKVSAAGDYASEAGKKVGDAEDSMIQGAYDAKDSAKESASNAGNKISNAFTSLKDSITGDNAHKTGEALNDNYESVKESASEAADRLKEPAQNTADNAKDLANQTGEEMSDAFESVKQLTSDTAENAKENAHDAADTAKSYKDKAGEKASGILDSFKAHASDAKDSVENKASDAYNSAKDKAGDAWDSTKDAAGDAKDKTKSFTEKVGDKISGAYDSVKEKASDVADSFKAHSTDSKDNVENKAADAYNTAKDKASDAWDKTKDKAGEAKDKMGDAWDTTKDKAGDAWDTTKDKAGDGKGKAGDAWDTTKDKASDAWDTTKDKAGEAKDKMGEAWDHTKDKAGEAKDKASDAADDAQGKSKSMTEKIGDSISGAWESTKDTAVSAKDKTAEAAGKVGDSISGAYDTVKEKASDIADSFKAHSTDSKDNVENKAADAYNSAKDKASDAWDKTKDKAGDAKDKAADAWDTTKDKAGDAWDSTKDHAADAKDKASDAAGDAKDKSKSLTEKAGDAISGAYDSVKEKASDIADSFKAHSTNSKDNVENKASDAYNSAKDKASDAWDKTKDKAGEAKDKAGDAWDNTKDKAGNAWDSTKDKASDAWDTTKDKASDAKESAGDAADSAKDKSKSITETIGDKISGAYDSVKEKASDVADSFKAHSSDAQDTVEVSHHKYFNVFSSFE | soluble
11 | MSFSADEVRFLAQSEREIAEMTADLDLSKKSMISDVATLRKHFGDFGRAVAELAGARRSAVGKLPQDWLMCQESAQQTTPPAVSAERARRLKTALGENVIVHDVTCSIGTEGHELIDAGLRYLGSDLDFSRTLMAAHNLQGKNALIFRADALQPASRGADVIIADPARRAGGKRITNPAQLLPPLPSLLDAWINQPLAVKCAPGLDFSEWPGLVSIASVDGGVKEACLYTTDLADGETREAIVIKDGLIDRITNFEDDATGQDLAAAPGEFIIDPDGAIVRAGLVRHYAVREQLWMLDERIAYLTGNRIPEGTSGFRFIEEVPLKKLKSAMAAHDAGAVEILVRGVDVDPDQLRKRLQLKGTKAMSVVITRIGSRGVALICGPRERA | not soluble
12 | MSFVPCTTAIYAFSKNHQPVRTVQSGETFVIETYDCFQNQITSSETPFDSIDWNHINPATGPIYIEGAEPGDILAVKIEQIRLKGQGVMAVGPGLGVLGDRIPQFEAKMIPVEENRAVFDEHLSIPLNPMIGVIGVAPSGEDVSCGTPGPHGGNMDTKLITTGATVYFPVFVKGALFALGDLHAAMGDGEIGVSGIEISGEVTVTVRVMKGYSLNHPLLQNDDGIATIVSAKTLDEAVKQSVEEMVNLLLPHTPLTLNHLTMVLSAVGQTQISQVVDPLVTARFFVPRFVLEAYGIRLFED | not soluble
13 | MSGAIYRCMAIASEPLDALIIGAGHNGLVCAAYLARAGKRVLVLEAREVVGGAAVTEEFHPGFRNSVAAYTVSLLQPRVIADLALERHGLRVVPRRINNFLPLPNGDYLLAGAGRTAQDVARFSARDAAALPAYEARLEQLADVLRALALQPPPDVTDGGWLQALPQLWRAGKLGLQLQGLPLTLRQELLDLFTISAAEYLDRWFESAPIKALFGFDGIVGNYASPHTPGTAYVLLHHVFGQSNGVKGAWGHAIGGMGAITQAMAASAREYGAQLRTGCAVERVLVEQGHAVGVVTTAGETVRARAVVANVNPKLLYQRLMRPDDVPATTRERIAHYRCGSGTFRMNVALSRLPDFAALPGNGDHLTAGIILAPSLDYMDRAWHDARAFGWSREPVVELLIPSTLDDTLAPPGQHVASLFCQHVAPQLPDGRRWDDHREEVADLMIATVERYAPGFAASVLGRQVLSPLDLERMFGLVGGDIFHGALSLNQLFSARPLLGQGAYRGAVPGLYLCGSGTHPGGGVTGAPGHNAARVILGGLEHHHHHH | not soluble
14 | MSGATPVFTEINQIQGTGDKSPLISSGFISDDEYFVQGVVTARGESLLKGFYLQGLNDDFDPNSSEGIFVSTGSAPSLEIQPGALVCVKAKVQEYYGQTQLKPDTNNFLVQGHQAPVSVTELTINENETLAQALERHEGMQVKLTSHSDLRITRNFSFDYASKRNNMVLSHGEPLFKPTQLFAAESPEAIQLAEENAKRQITIESDNKAPNGEVPYFPDFATDSNQDGSADSYLRLGARIEGLEGVIAYSYGQYRLVTTNTISQENIITQAFDEDGLEHHHHHH | soluble
15 | MSGFLEQRLGHCLRQMAEKGLEALLVTHLTNSYYLTGFSGTAATVLITAKRRVLITDSRYTLLAKASVEGFDIIESRTPLKVVAELLEADQIDCLGFEDQVSFSFYQAMQAELSGITLLAQSGFVEHLR | soluble
16 | MSGIIATYLIHDDSHNLEKKAEQIALGLTIGSWTHLPHLLQEQLKQHKGNVIHVEELAEHEHTNSYLRKKVKRGIIKIEYPLLNFSPDLPAILTTTFGKLSLDGEVKLIDLTFSDELKKHFPGPKFGIDGIRNLLQVHDRPLLMSIFKGMIGRNIGYLKTQLRDQAIGGVDIVKDDEILFENALTPLTKRIVSGKEVLQSVYETYGHKTLYAVNLTGRTFDLKENAKRAVQAGADILLFNVFAYGLDVLQSLAEDDEIPVPIMAHPAVSGAYSASKLYGVSSPLLLGKLLRYAGADFSLFPSPYGSVALEKEEALAISKYLTEDDASFKKSFSVPSAGIHPGFVPFIVRDFGKDVVINAGGGIHGHPNGAQGGGKAFRTAIDATLQNKPLHEVDDINLHSALQIWGNPSYEVKL | soluble
17 | MSGKLTVITGPMYSGKTTELLSFVEIYKLGKKKVAVFKPKIDSRYHSTMIVSHSGNGVEAHVIERPEEMRKYIEEDTRGVFIDEVQFFNPSLFEVVKDLLDRGIDVFCAGLDLTHKQNPFETTALLLSLADTVIKKKAVCHRCGEYNATLTLKVAGGEEEIDVGGQEKYIAVCRDCYNTLKKRV | soluble
18 | MSGLDDRKKLTHAKNRKPLNDIPKSAENRPNTRSTSSRRGAEKDVPITFIGSSRTVKADLPEFTNTRSRRPLHSESKKELSRNPVSRGEEHSSSLPKSSPESSVSVMSSNASLWSACTEEVNKIGVCAKRESRNLRVYKMKSFTSNMEQILSNDNQLAPTVIRILNSRNSWCLNSCHACLTFIMENITSDNYGKRSACLKALASITNSLLDTIIGFASTKTRRIGVDVVAEERAAKATECIHNFRKIVKNRDKIYKQIDQETIYKLDAILERLKKVSSHK | not soluble
19 | MSGLTKIKPPKKARIGLYSAGLNTYWGQFEGLYDCLMGYNRFIEKRLSEWGEVFNFGMVDTEEKGREAGEFFNKNNVDIVFSHAATYYASATVLPVHQINNAPVIILNLQPTAEMAYDTTGTDRWLAQCVGCSIPEISNAFNRAGITFRAVNGLLGLTETPDFAKADEVTCERPEAVRAWKQIEEWCRAAAVKRNLQWARFGFLGGYYSGMLDMYSDFTMLQAQTGIDIEVLEMSDLDAYLKTVTEEEVQEKLKEIQDFFEISGDSPSDPIAKKPTEEQLTWSAKVAIAQEKMVRERNLDSVSYYYHGRDDYLEEVQSGFIVGFSLLNAQGIACAGEGDIKTALAMKIADICGTGGSFCEIVAADFNRDTMILGHDGPFHFAISKGKPILRGMGVYHGKRGSGVSVEAKVRPGAVTTLGVTQTGDGRLKFNISEGEAIDAPILLNGNTSTHIRFSQKPAEYMDRWFQEAPTHHLALSVGHNAELFKKIAELMDIPYAIY | soluble
20 | MSGPNGDLGMPVEAGAEGEEDGFGEAEYAAINSMLDQINSCLDHLEEKNDHLHARLQELLESNRQTRLEFQQQLGEAPSDASP | soluble
